Reference: article PMC7414181

What was measured:
CD4-Ig [1] = molecular target: CD4-Ig (UniProt P01730)
CD4-Ig [2] = molecular target: CD4-Ig (UniProt P01730); test: SPR; CD4-Ig captured on a protein A biosensor chip; monomeric gp120 proteins flowed over as a fourfold dilution series with a maximum concentration of 250 nM
[3] = molecular target: YU2_(G458D) gp120 (HIV-1 (strain YU2))
[4] = molecular target: YU2_(G366E) (HIV-1 (strain YU2))
[5] = molecular target: YU2_(G471R) gp120 (HIV-1 (strain YU2))
[6] = molecular target: YU2_(E466K) gp120 (HIV-1 (strain YU2))
[7] = molecular target: YU2wt gp120 (HIV-1 strain YU2) (UniProt P35961)

| Substance | Kd (CD4-Ig [1]) [nM] | koff (CD4-Ig [1]) [s⁻¹] | kon (CD4-Ig [1]) [M⁻¹ s⁻¹] | other results |
| --- | --- | --- | --- | --- |
| YU2E466K gp120 (natural protein) | 1.7 | 0.00027 | 160000 | – |
| YU2G458D gp120 (natural protein) | 6 | 0.00121 | 200000 | – |
| YU2G471R gp120 (natural protein) | 1.6 | 0.00021 | 140000 | – |
| YU2_(G458D) gp120 (natural protein) | – | – | – | fold faster dissociation than YU2wt gp120 (CD4-Ig [2]): 11 fold |
| sCD4 D1D2 (domain or fragment) | – | – | – | neutralization of YU2 mutant pseudovirus by sCD4, TZM-bl assay, loss of sensitivity against YU2wt [3]: 30 fold; neutralization of YU2 mutant pseudovirus by sCD4, TZM-bl assay, loss of sensitivity against YU2wt [4]: 30 fold; neutralization of YU2 mutant pseudovirus by sCD4, TZM-bl assay, loss of sensitivity against YU2wt [5]: 30 fold; neutralization of YU2 mutant pseudovirus by sCD4, TZM-bl assay, loss of sensitivity against YU2wt [6]: 30 fold; Table S5: IC50 of sCD4 in the in vitro neutralisation of YU2wt pseudovirus on TZM-bl cells (blocks Env from CD4 on target cells) [7]: 0.29 µg/mL |
